Reference: patent US20250019450A1 (DIAGONAL THERAPEUTICS, published 2025)
Where a chain is given by its changes, count along the chain named. Each block holds one binder with its values, some of them ahead of it.

Experiments:
[1] = target: T1, cyno IL-12RB2 overexpressed on 293T cells (Example 2) (cyno, UniProt A0A2K5VNI7 24-860); assay: FACS, hybridoma supernatant, 293T
T1 construct: whole, on cells
T1 sequence: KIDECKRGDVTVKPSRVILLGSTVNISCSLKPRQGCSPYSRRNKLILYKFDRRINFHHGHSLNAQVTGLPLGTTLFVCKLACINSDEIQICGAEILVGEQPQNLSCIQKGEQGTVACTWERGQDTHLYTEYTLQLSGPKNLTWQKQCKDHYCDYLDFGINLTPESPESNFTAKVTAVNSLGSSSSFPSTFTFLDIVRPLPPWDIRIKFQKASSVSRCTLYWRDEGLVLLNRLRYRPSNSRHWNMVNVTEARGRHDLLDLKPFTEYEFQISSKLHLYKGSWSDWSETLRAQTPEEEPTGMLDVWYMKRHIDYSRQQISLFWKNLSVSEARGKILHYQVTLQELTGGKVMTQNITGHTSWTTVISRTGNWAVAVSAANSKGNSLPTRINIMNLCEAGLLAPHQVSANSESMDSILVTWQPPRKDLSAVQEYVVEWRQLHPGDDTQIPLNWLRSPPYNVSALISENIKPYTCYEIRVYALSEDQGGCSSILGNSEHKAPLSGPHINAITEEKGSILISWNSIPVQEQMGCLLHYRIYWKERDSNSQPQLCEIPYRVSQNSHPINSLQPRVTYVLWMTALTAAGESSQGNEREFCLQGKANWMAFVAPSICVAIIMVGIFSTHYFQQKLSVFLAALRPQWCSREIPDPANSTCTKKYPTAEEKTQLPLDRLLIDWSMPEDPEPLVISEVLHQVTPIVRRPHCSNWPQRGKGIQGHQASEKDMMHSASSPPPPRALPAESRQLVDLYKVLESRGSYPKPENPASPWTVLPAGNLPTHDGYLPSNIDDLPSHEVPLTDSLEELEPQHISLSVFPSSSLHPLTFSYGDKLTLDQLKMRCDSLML

[2] = target: T2, human IL-12RB2 overexpressed on 293T cells (Example 2) (human, UniProt Q99665 24-862); assay: FACS, hybridoma supernatant, 293T
T2 construct: whole, on cells
T2 sequence (looked up): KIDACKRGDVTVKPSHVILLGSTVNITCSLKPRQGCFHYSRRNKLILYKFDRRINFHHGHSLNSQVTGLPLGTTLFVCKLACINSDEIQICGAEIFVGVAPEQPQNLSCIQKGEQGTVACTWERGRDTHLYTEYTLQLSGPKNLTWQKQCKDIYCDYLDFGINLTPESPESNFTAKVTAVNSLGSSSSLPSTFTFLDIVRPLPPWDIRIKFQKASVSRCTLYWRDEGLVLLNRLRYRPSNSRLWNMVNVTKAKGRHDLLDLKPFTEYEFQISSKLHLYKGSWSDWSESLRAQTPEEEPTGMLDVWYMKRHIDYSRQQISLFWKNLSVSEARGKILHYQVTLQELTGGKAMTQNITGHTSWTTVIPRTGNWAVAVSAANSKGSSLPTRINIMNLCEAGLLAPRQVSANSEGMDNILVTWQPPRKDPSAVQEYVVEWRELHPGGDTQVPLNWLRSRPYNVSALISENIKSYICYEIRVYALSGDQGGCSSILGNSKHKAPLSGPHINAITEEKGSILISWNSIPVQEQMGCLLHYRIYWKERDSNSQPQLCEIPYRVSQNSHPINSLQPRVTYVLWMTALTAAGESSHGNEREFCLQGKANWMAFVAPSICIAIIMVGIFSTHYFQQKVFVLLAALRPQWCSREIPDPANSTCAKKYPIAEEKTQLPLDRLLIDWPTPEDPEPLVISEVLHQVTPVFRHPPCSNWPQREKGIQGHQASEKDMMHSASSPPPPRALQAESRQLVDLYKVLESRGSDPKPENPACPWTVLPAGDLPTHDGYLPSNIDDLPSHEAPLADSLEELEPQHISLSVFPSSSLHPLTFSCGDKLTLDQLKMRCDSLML

[3] = target: T3, IL-12 receptor endogenously expressed on THP-1 cells (UniProt P42701 24-662; Q99665 24-862); assay: FACS, hybridoma supernatant, THP-1
T3 construct: whole, on cells

B3: 85802_06A17 (antibody, V domains shown)
VH: EVQLVQSGAEVKKPGESLKISCKGSGYSFTSYWIGWVRQMPGKGLECMGIIYPGDSDTRYSPSFQGQVTISADKSISTAYLQWSSLKASDTAMYYCARHEGAYWYFDLWGRGTLVTVSS
VL: QSVLTQPPSVSGAPGQRVTISCTGSSSNIGAGYDVHWYQQLPGTAPKVLIYGNSNRPSGVPDRFSGSKSGTSASLAITGLQAEDEADYYCQSLDTSHVVFGGGTKLTVL
notes: also called 85802_06A17A
Fold over parental 293T [1]: 11 fold
Fold over parental 293T [2]: 2.8 fold
Fold over buffer [3]: 28 fold

B5: 85802_06H06 (antibody, V domains shown)
VH: QVHLQESGPGLVKPSETLSLTCTVSGGSISYYYWNWIRQPPGKGLEWIASIYNSGNINYNPSLKSRVTISVDTSKNQFSLKLTSVTAADTAVYYCARGGYSYGYFDNWGQGILVTVSS
VL: SYELTQPPSVSVSPGQTASITCSGRELGNKYAYWYQQKPGQSPVLVIYEDYKRPSGIPERFSGSNSGNTATLTISGTQAMDEADYYCQAWDSSTVIFGGGTKLTVL
notes: also called 85802_06H06A
Fold over parental 293T [1]: 10 fold
Fold over parental 293T [2]: 2.9 fold
Fold over buffer [3]: 34 fold

B6: 85802_06F06 (antibody, V domains shown)
VH: QVQLQESGPGLVKPSETLSLTCTVSGGSISSYYWSWIRQPPGKGLEWFGYIYDSGSTNYNPSLKSRVTISVDTSKNQFSLKLSSVTAADTAVYYCARGSYFWYFDLWGRGTLVTVSS
VL: B5 VL with R25D, E26K, N29A, Y33S, Q36H, E49Q, Y51T, I96V
notes: also called 85802_06F06A
Fold over parental 293T [1]: 14 fold
Fold over parental 293T [2]: 3.3 fold
Fold over buffer [3]: 35 fold

B7: 85802_02K15 (antibody, V domains shown)
VH: EVQLVQSGTEVKKPGESLKISCKGSGYSFTSYWIGWVRQMPGKGLEWMGNIYPGDSDTRYSPSFQGHVTISADKSISTAYLQWSSLKASDTAMYYCARRGGGYWGQGTLVTVSS
VL: not shown
notes: also called 85802_02K15A
Fold over parental 293T [1]: 6 fold
Fold over parental 293T [2]: 3.3 fold
Fold over buffer [3]: 53 fold

The next lines start with the values.

Fold over parental 293T [1]: 13 fold
Fold over parental 293T [2]: 3.3 fold
Fold over buffer [3]: 27 fold
B1: 85802_10K12 (antibody, V domains shown)
VH: QVTLRESGPALVKPTQTLTLTCTFSGFSLSTSGMCVSWIRQPPGKALEWLALIYWDDDKYYSTSLKTRLTISKDTSKNQVVLTMTNMDPVDTATYYCARMRRGIEAFDIWGQGTMVTVFS
VL: QSVLTQPPSVSGAPGQRVTISCTGSSSNIGAGYDVHWYQQLPGTAPKLLIFGYSNRPSGVPVRFSGSKSGTSASLAITGLLAEDEADFYCQSFDISLTGWVFGGGTKLTVL
notes: also called 85802_10K12A

Fold over parental 293T [1]: 8 fold
Fold over parental 293T [2]: 3.4 fold
Fold over buffer [3]: 21 fold
B2: 85802_08F20 (antibody, V domains shown)
VH: QVQLVQSGAEVKKPGASVKVSCKASGYTFIGYYIHWVRQAPGQGLEWMGWINPHSGGTNYAQKFQGRVTMTRDTSISTAYMELSRLRSDDTAIYYCTKEANNWGYAFDIWGQGTMVTVSS
VL: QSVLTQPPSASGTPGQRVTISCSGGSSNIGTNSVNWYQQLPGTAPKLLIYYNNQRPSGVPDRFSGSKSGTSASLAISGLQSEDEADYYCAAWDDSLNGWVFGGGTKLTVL
notes: also called 85802_08F20A

Fold over parental 293T [1]: 12 fold
Fold over parental 293T [2]: 3.8 fold
Fold over buffer [3]: 21 fold
B4: 85802_10M17 (antibody, V domains shown)
VH: EVLLVESGGGLVKPGGSLRLSCAASGFTFSSYSMNWVRQAPGKGLEWVSSISSSSDYIHYADSVRGRFTISRDNAKNSLYLQMNSLRAEDTAVYYCARSELGFDYWGQGTLVTVSS
VL: DIQMTQSPSSVSASVGDRVTITCRASQGISIWLAWYQQKPGKAPKPLIYAASSLQSGVPSRFSGSGSGTDFTLTISSLQPEDFATYYCQQANSFPLTFGGGTKVEIK
notes: also called 85802_10M17A
